Experimental data: article PMC4011162, “A gene horizontally transferred from bacteria protects arthropods from host plant cyanide poisoning” (eLife, 2014)

How the values were obtained:
[1] = target: T1, Tu-CAS (Tetranychus urticae, UniProt T1KF23); assay: cofactor dependence of enzymatic activity; assay type: biochemical; conditions: 500 µM pyridoxal-5'-phosphate in assay; Schiff base lysine conserved by sequence
T1 construct: gene 107363798; tag removal not mentioned; PLP-dependent, predicted cytosolic
T1 sequence (T1KF23 1-320): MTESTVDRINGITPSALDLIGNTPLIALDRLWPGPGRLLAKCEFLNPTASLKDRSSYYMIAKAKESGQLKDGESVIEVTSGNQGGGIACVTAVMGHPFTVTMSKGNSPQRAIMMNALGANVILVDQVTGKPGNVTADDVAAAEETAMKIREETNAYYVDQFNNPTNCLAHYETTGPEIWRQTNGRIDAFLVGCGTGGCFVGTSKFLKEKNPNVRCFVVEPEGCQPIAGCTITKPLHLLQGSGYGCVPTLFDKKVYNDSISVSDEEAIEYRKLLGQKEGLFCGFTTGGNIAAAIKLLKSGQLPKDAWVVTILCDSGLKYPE

[2] = substrate: CC(=O)OC[C@H](N)C(=O)O; assay: purified protein; conditions: co-substrate sodium sulfide (standard 2 mM); preincubated with 500 µM pyridoxal-5'-phosphate; pH not given
[3] = substrate: N[C@@H](CS)C(=O)O; assay: purified protein; assay type: biochemical, Tetranychus urticae; conditions: co-substrate sodium cyanide (standard 0.01 M stock), 0.2 M Tris pH 8.5, 37 °C, preincubated with 500 µM pyridoxal-5'-phosphate

## Cc1ncc(COP(=O)(O)O)c(C=O)c1O [pyridoxal-5′-phosphate]
[1]
  cofactor dependence of enzymatic activity: Enzymatic activity was dependent on pyridoxal-5′-phosphate as a cofactor

B1: Tu-CAS (Tetranychus urticae) (protein)
chain: T1 sequence (T1KF23 1-320)
notes: tag removal not mentioned; PLP-dependent, predicted cytosolic
[2]
  Km: 3170 µM
  kcat/Km: 203 M⁻¹ s⁻¹
[3]
  Km: 312 µM
  kcat/Km: 6840 M⁻¹ s⁻¹
